The DeepSol protein solubility set

Test: soluble on expression in E. coli; label from the status in PepcDB or PDB records

| Sequence | soluble on expression in E. coli |
| --- | --- |
| MHHHHHHMNSRILSTGSYLPSHIRTNADLEKMVDTSDEWIVTRSGIRERRIAAEDETVATMGFEAAKNAIEAAQINPQDIELIIVATTSHSHAYPSAACQVQGLLNIDDAISFDLAAACTGFVYALSVADQFIRAGKVKKALVIGSDLNSRKLDETDRSTVVLFGDGAGAVILEASEQEGIISTHLHASADKNNALVLAQPERGIEKSGYIEMQGNETFKLAVRELSNVVEETLLANNLDKKDLDWLVPHQANLRIITATAKKLEMDMSQVVVTLDKYANNSAATVPVALDEAIRDGRIQRGQLLLLEAFGGGWTWGSALVRF | soluble |
| GAVETLQGKAATGELLEKSVNTIRFLAIDAVEKANSGHPGLPMGCAPMGHVLYDEVMRYNPKNPYWFNRDRFVLSAGHGCMLQYALLHLAGYDSVKEEDLKQFRQWGSRTPGHPENFETPGVEVTTGPLGQGIANAVGLALAEKHLAARFNKPDSEIVDHYTYVILGDGCQMEGIANEACSLAGHWGLGKLIAFYDDNHISIDGDTEIAFTEDVSTRFEALGWHTIWVKNGNTGYDDIRAAIKEAKAVTDKPTLIKVTTTIGFGSPNKANSYSVHGSALGAKEVEATRQNLGWPYDTFFVPEDVKSHWSRHTPEGAALEADWNAKFAEYEKKYADDAATLKSIITGELPTGWVDALPKYTPESPGDATRNLSQQCLNALANVVPGLIGGSADLASSNMTLLKMFGDFQKDTAEERNVRFGVREHGMGAICNGIALHSPGFVPYCATFFVFTDYMRGAMRISALSEAGVIYVMTHDSIGLGEDGPTHQPIEHLVSFRAMPNILMLRPADGNETAGAYKVAVLNRKRPSILALSRQKLPHLPGTSIEGVEKGGYTISDNSTGNKPDLIVMGTGSELEIAAKAADELRKEGKTVRVVSFVSWELFDEQSDEYKESVLPAAVTARISIEAGSTLGWQKYVGAQGKAIGIDKFGASAPAGTIYKEYGITVESIIAAAKSF | soluble |
| MHSGDFMSVSTPTRDDFAALLEESFASNDLAEGYVAKGIVTAIEKDVAIVDVGLKVEGRVPLKEFGAKSKDGTLKVGDEVEVYVERIENALGEAVLSREKARREESWVKLEAKFEAGERVEGVIFNQVKGGFTVDLDGAVAFLPRSQVDIRPIRDVTPLMHNPQPFEILKMDKRRGNIVVSRRTVLEESRAEQRSEIVQNLEEGQVVDGVVKNITDYGAFVDLGGIDGLLHVTDMAWRRVNHPSEILNIGQQVKVQIIRINQETHRISLGMKQLESDPWDGISAKYPVGKKISGTVTNITDYGAFVELEPGIEGLIHISEMSWTKKNVHPGKILSTSQEVDVVVLEVDPSKRRISLGLKQTLENPWQAFAFSHPAGTEVEGEVKNKTEFGLFIGLEGDVDGMVHLSDLDWNRPGEQVIEEFNKGDVVKAVVLDVDVEKERISLGIKQLGKDAVGEAATSGDLRKNAVVSCEVIAVNDGGVEVKLVNHEDITSFIRRNDLARDRDDQRPERFAVGQVFDARVVNFSKKDRKVMLSIKALEIAEEKEAVAQFGSSDSGASLGDILGAALKNRGELEHHHHHH | soluble |
